Assays:
[1] = target: recombinant human PTX3 (D at position 48) from CHO cells (human) (UniProt P26022)
[2] = target: recombinant C1q Lys^C170Glu mutant (human) (UniProt P02745); test: SPR; Biacore 3000, 25°C; C1q variants immobilised on CM5 chips by amine coupling; partners injected at 20 μl/min in 50 mM Tris-HCl, 150 mM NaCl, 2 mM CaCl2, 0.005% surfactant P20, pH 7.4; BSA reference surface; global fit to 1:1 Langmuir model; apparent KD = kd/ka
[3] = target: recombinant C1q Tyr^B175Leu mutant (human) (UniProt P02745); test: as above
[4] = target: recombinant wild-type C1q (human) (UniProt P02745); test: as above
[5] = target: recombinant human PTX3 D48 allelic variant from HEK293 (human) (UniProt P26022); test: non-reducing SDS-PAGE; purified PTX3 on Tris acetate 3-8% gels without dithiothreitol, silver stain; disulfide-linked oligomers
[6] = target: recombinant human PTX3 A48 allelic variant from HEK293 (human) (UniProt P26022); test: as above
[7] = target: recombinant C1q Lys^A200Asp-Lys^A201Asp mutant (human) (UniProt P02745); test: SPR; Biacore 3000, 25°C; C1q variants immobilised on CM5 chips by amine coupling; partners injected at 20 μl/min in 50 mM Tris-HCl, 150 mM NaCl, 2 mM CaCl2, 0.005% surfactant P20, pH 7.4; BSA reference surface; global fit to 1:1 Langmuir model; apparent KD = kd/ka
Sequence of recombinant C1q Lys^A200Asp-Lys^A201Asp mutant (human) (P02745 other isoform, or with tags, fused parts or gaps mutant, chain 1 of 3): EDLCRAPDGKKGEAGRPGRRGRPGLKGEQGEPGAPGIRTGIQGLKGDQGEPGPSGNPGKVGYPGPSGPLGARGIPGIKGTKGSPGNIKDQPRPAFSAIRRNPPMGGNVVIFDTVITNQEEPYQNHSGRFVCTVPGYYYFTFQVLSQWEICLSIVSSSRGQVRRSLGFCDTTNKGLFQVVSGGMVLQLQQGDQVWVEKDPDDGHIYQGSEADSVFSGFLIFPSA
Sequence of recombinant C1q Lys^A200Asp-Lys^A201Asp mutant (human) (P02746 28-253, stated change not applied, chain 2 of 3, further chain): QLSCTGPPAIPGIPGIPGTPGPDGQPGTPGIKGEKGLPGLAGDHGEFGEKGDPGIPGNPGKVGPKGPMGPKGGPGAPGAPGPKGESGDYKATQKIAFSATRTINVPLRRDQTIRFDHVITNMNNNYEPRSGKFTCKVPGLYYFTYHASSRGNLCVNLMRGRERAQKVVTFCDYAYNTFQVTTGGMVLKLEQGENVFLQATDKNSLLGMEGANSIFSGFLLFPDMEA
Sequence of recombinant C1q Lys^A200Asp-Lys^A201Asp mutant (human) (P02747 29-245, stated change not applied, chain 3 of 3, further chain): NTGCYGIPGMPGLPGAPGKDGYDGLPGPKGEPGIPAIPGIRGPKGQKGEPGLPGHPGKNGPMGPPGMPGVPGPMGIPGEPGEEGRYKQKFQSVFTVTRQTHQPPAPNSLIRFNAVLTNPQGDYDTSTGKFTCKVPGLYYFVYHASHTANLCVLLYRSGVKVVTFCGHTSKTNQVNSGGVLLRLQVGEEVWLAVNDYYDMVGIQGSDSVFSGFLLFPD

Sequence of recombinant C1q Tyr^B175Leu mutant (human) (P02745 23-245, change not shown, chain 1 of 3): as the sequence (P02745 other isoform, or with tags, fused parts or gaps mutant, chain 1 of 3) above, with D200K, D201K counted along it
Sequence of recombinant C1q Tyr^B175Leu mutant (human) (P02746 other isoform, or with tags, fused parts or gaps mutant, chain 2 of 3, further chain): as the sequence (P02746 28-253, stated change not applied, chain 2 of 3, further chain) above, with Y175L counted along it
Sequence of recombinant C1q Tyr^B175Leu mutant (human) (P02747 29-245, change not shown, chain 3 of 3, further chain): as the sequence (P02747 29-245, stated change not applied, chain 3 of 3, further chain) above
Sequence of recombinant C1q Lys^C170Glu mutant (human) (P02745 23-245, stated change not applied, chain 1 of 3): as the sequence (P02745 other isoform, or with tags, fused parts or gaps mutant, chain 1 of 3) above, with D200K, D201K counted along it
Sequence of recombinant C1q Lys^C170Glu mutant (human) (P02746 28-253, stated change not applied, chain 2 of 3, further chain): as the sequence (P02746 28-253, stated change not applied, chain 2 of 3, further chain) above
Sequence of recombinant C1q Lys^C170Glu mutant (human) (P02747 other isoform, or with tags, fused parts or gaps mutant, chain 3 of 3, further chain): as the sequence (P02747 29-245, stated change not applied, chain 3 of 3, further chain) above, with K170E counted along it
Sequence of recombinant wild-type C1q (human) (P02745 23-245, chain 1 of 3): as the sequence (P02745 other isoform, or with tags, fused parts or gaps mutant, chain 1 of 3) above, with D200K, D201K counted along it
Sequence of recombinant wild-type C1q (human) (P02746 28-253, chain 2 of 3, further chain): as the sequence (P02746 28-253, stated change not applied, chain 2 of 3, further chain) above
Sequence of recombinant wild-type C1q (human) (P02747 29-245, chain 3 of 3, further chain): as the sequence (P02747 29-245, stated change not applied, chain 3 of 3, further chain) above

recombinant C1q Lys^A200Asp-Lys^A201Asp mutant (from UniProt P02745 23-245; P02746 28-253; P02747 29-245) (complex)
PTX3-dependent complement activation: C4b deposition in PTX3-coated wells, C1q-depleted serum reconstituted with the C1q variant (4 μg/ml) [1]: 163 % of C1qWT

recombinant C1q Tyr^B175Leu mutant (from UniProt P02745 23-245; P02746 28-253; P02747 29-245) (complex)
IgM-dependent complement activation: C4b deposition in IgM-coated wells, C1q-depleted serum reconstituted with the C1q variant (4 μg/ml) (% of the C1qWT value) (human IgM (human)): 61.4
PTX3-dependent complement activation: C4b deposition in PTX3-coated wells, C1q-depleted serum reconstituted with the C1q variant (4 μg/ml) (% of the C1qWT value) [1]: 44.5

recombinant C1s-C1r-C1r-C1s tetramer (complex)
Kd [2]: 5.29 nM
koff [2]: 0.00256 s⁻¹
kon [2]: 486000 M⁻¹ s⁻¹
Kd [3]: 6.75 nM
koff [3]: 0.00297 s⁻¹
kon [3]: 440000 M⁻¹ s⁻¹
Kd [4]: 6.36 nM
koff [4]: 0.00288 s⁻¹
kon [4]: 435000 M⁻¹ s⁻¹

recombinant human PTX3 D48 allelic variant from HEK293 (from UniProt P26022 18-381) (natural protein)
stoichiometry N [5]: 8

recombinant human PTX3 A48 allelic variant from HEK293 (from UniProt P26022 18-381) (natural protein)
stoichiometry N [6]: 8

recombinant C1q Arg^B108Asp-Arg^B109Glu mutant (from UniProt P02745 23-245; P02746 28-253; P02747 29-245) (complex)
IgM-dependent complement activation: C4b deposition in IgM-coated wells, C1q-depleted serum reconstituted with the C1q variant (4 μg/ml) (% of the signal obtained with C1qWT) (human IgM (human)): 9
PTX3-dependent complement activation: C4b deposition in PTX3-coated wells, C1q-depleted serum reconstituted with the C1q variant (4 μg/ml) (% of the signal obtained with C1qWT) [1]: 30

recombinant human PTX3 (D at position 48) from CHO cells (from UniProt P26022 18-381) (natural protein)
Kd [2]: 10.9 nM
koff [2]: 0.00152 s⁻¹
kon [2]: 140000 M⁻¹ s⁻¹
Kd [7]: 7.84 nM
koff [7]: 0.000634 s⁻¹
kon [7]: 98300 M⁻¹ s⁻¹
Kd [4]: 5.65 nM
koff [4]: 0.000859 s⁻¹
kon [4]: 155000 M⁻¹ s⁻¹

human IgM (antibody)
Kd [2]: 2.48 nM
koff [2]: 0.00167 s⁻¹
kon [2]: 681000 M⁻¹ s⁻¹
Kd [3]: 0.892 nM
koff [3]: 0.00131 s⁻¹
kon [3]: 1.47e+06 M⁻¹ s⁻¹
Kd [7]: 3.31 nM
koff [7]: 0.00206 s⁻¹
kon [7]: 717000 M⁻¹ s⁻¹
Kd [4]: 1.92 nM
koff [4]: 0.00154 s⁻¹
kon [4]: 919000 M⁻¹ s⁻¹
